# Assay results published in publication PMC5985169, “Somatostatin Decorated Quantum Dots for Targeting of Somatostatin Receptors” (Iranian Journal of Pharmaceutical Research : IJPR, 2018).
# Test: HPLC analysis of SST before and after thiolation (elution time related to hydrophilicity)
# Type: physicochemical
# Details: chromatographic, C18 reversed-phase analytical column, linear gradient 26% to 39% acetonitrile in water with 0.1% TFA, 1.0 mL/min, detection at 274 nm
# Method: Then, thiolated-SST labeled with (1.5 eq) eosin-5-maleimide. Eosin-5-maleimide solution was mixed with thiolated-SST, the reactants were stirred at 600rpm for 30 min. The products were purified by running in Sephadex G-25 mini-column, and identified by thin layer chromatography. HPLC analysis was performed for SST using a linear gradient from 26% to 39% acetonitrile in water, with 0.1% TFA as mobile phase at a flow rate of 1.0 mL/min using a C18-reversed phase analytical column.
# The thiolation of SST was investigated using HPLC. […] The single peak eluted at about 19 min corresponded to SST. Thiolated-SST eluted at 18.6 min. The signal consists of multiple neighbouring peaks, these neighbouring peaks appeared between 20.5 and 23 min (Figure 7) and could be related to SST in isomerized form. Neither thiolated-SST nor SST degradation products were detected. Thiolated-SST eluted earlier than SST which is related to the increase in hydrophilicity.
# Figure 7 HPLC chromatographs of SST reacted with Traut´s reagent. Signals were detected at 274 nm. Single peak eluted at about 19 min corresponded to SST. Thiolated-SST eluted at 18.6 min.
row,Substance,HPLC elution time (earlier elution related to increase in hydrophilicity)
1,Somatostatin acetate [SST],about 19 min
2,Thiolated-SST: SST thiolated using Traut's reagent,18.6 min
